These results are taken from patent publication US20090311283A1.

The chains are these.
B1: HBV POL 519 peptide … (peptide)
peptide: TSAICSVVR
modifications: not checked
B2: HBV X 11 peptide … (peptide)
peptide: PARDVLCLR
modifications: not checked
B3: HBV ENV 249 peptide … (peptide)
peptide: ILLLCLIFL
modifications: not checked
B4: HBV ENV 348 peptide GLSPTVWL (peptide)
peptide: GLSPTVWL
modifications: not checked
B5: HBV POL 406 peptide … (peptide)
peptide: NLLSSNLSWL
modifications: not checked
B6: HBV X 133 peptide … (peptide)
peptide: VLGGCRHKL
modifications: not checked
B7: HBV POL 59 … (peptide)
peptide: FTGLYSSTV
modifications: not checked
B8: HBV POL 42 peptide … (peptide)
peptide: NLGNLNVSI
modifications: not checked
B9: HBV NUC 119 peptide LVSFGVWI (peptide)
peptide: LVSFGVWI
modifications: not checked
B10: HBV POL 363 … (peptide)
peptide: FLVDKNPHNT
modifications: not checked
B11: HBV X 132 … (peptide)
peptide: FVLGGCRHKL
modifications: not checked
B12: HBV NUC 123 peptide … (peptide)
peptide: GVWIRTPPA
modifications: not checked
B13: HBV POL 627 peptide … (peptide)
peptide: GLLGFAAPFT
modifications: not checked
B14: HBV POL 581 9-mer … (peptide)
peptide: SLNFMGYVI
modifications: not checked
B15: HBV POL 45 peptide … (peptide)
peptide: NLNVSIPWT
modifications: not checked
B16: HBV ENV 330 peptide … (peptide)
peptide: SVRFSWLSLL
modifications: not checked
B17: HBV ENV 243 FIIFLFIL (peptide)
peptide: FIIFLFIL
modifications: not checked
B18: HBV ENV 246 … (peptide)
peptide: FLFILLLCL
modifications: not checked
B19: HBV POL 518 … (peptide)
peptide: FTSAICSVV
modifications: not checked
B20: HBV POL 625 peptide … (peptide)
peptide: IVGLLGFAA
modifications: not checked
B21: HBV ENV 348 peptide … (peptide)
peptide: GLSPTVWLSVI
modifications: not checked
B22: HBV NUC 141 peptide … (peptide)
peptide: STLPETTVV
modifications: not checked
B23: HBV POL 357 9-mer … (peptide)
peptide: RVTGGVFLV
modifications: not checked
B24: HBV X 15 peptide … (peptide)
peptide: VLCLRPVGA
modifications: not checked
B25: HBV X 92 peptide … (peptide)
peptide: VLHKRTLGL
modifications: not checked
B26: HBV POL 414 9-mer peptide … (peptide)
peptide: WLSLDVSAA
modifications: not checked
B27: HBV ENV 260 peptide LLDYQGML (peptide)
peptide: LLDYQGML
modifications: not checked
B28: HBV ENV 254 peptide LIFLLVLL (peptide)
peptide: LIFLLVLL
modifications: not checked
B29: HBV POL 751 10-mer peptide … (peptide)
peptide: WLLGCAANWI
modifications: not checked
B30: HBV POL 752 peptide … (peptide)
peptide: LLGCAANWI
modifications: not checked
B31: HBV ENV 237 11-mer peptide … (peptide)
peptide: WMCLRRFIIFL
modifications: not checked
B32: HBV ENV 184 peptide LLTRILTI (peptide)
peptide: LLTRILTI
modifications: not checked
B33: HBV POL 768 peptide … (peptide)
peptide: YVPSALNPA
modifications: not checked
B34: HBV NUC 28 peptide … (peptide)
peptide: WGMDIDPYK
modifications: not checked
B35: … (HBV NUC 177) (peptide)
peptide: VVRRRGRSPR
modifications: not checked
B36: HBV NUC 177 peptide … (peptide)
peptide: VVRRRGRSPR
modifications: not checked
B37: HBV POL 496 peptide … (peptide)
peptide: PIILGFRKI
modifications: not checked
B38: HBV NUC 138 peptide … (peptide)
peptide: PILSTLPETT
modifications: not checked
B39: HBV POL 20 peptide … (peptide)
peptide: PLEEELPRL
modifications: not checked
B40: HBV NUC 138 peptide … (peptide)
peptide: PILSTLPETTV
modifications: not checked
B41: HBV NUC 138 peptide … (peptide)
peptide: PILSTLPET
modifications: not checked
B42: HBV POL 641 peptide … (peptide)
peptide: PALMPLYACI
modifications: not checked
B43: HBV POL 20 peptide … (peptide)
peptide: PLEEELPRLA
modifications: not checked
B44: HBV ENV 10 peptide … (peptide)
peptide: PLGFFPDHQL
modifications: not checked
B45: HBV NUC 26 peptide … (peptide)
peptide: WLWGMDIDPYK
modifications: not checked
B46: HBV POL 122 peptide … (peptide)
peptide: YLPLDKGIK
modifications: not checked
B47: HBV POL 122 peptide … (peptide)
peptide: YLPLDKGIKPY
modifications: not checked
B48: HBV POL 580 peptide YSLNFMGY (peptide)
peptide: YSLNFMGY
modifications: not checked
B49: HBV NUC 118 peptide … (peptide)
peptide: YLVSFGVWIR
modifications: not checked
B50: HBV NUC 125 peptide WIRTPPAY (peptide)
peptide: WIRTPPAY
modifications: not checked
B51: HBV POL 314 peptide WLQFRNSK (peptide)
peptide: WLQFRNSK
modifications: not checked

The target in the first experiment is HLA-A*6801 (human). Description: competition with 125I probe peptide on purified HLA-A*6801; relative to standard peptide 941.12. The following applies: remark: other sources report otherwise.
Regarding B1, the binding affinity ratio (IC50 standard peptide / IC50 test peptide) is 0.082.

The next experiment addresses HLA-A*3101 (human). Briefly: competition with 125I-labelled probe peptide for purified HLA-A*3101, gel filtration; ratio to standard peptide 941.12.
Conditions: not given
For B2, the binding affinity ratio (IC50 of standard peptide / IC50 of test peptide) worked out at 0.01.

Another experiment has as its target HLA-A*3101 (human). Briefly: competition with 125I probe peptide on purified HLA-A*3101; relative to standard peptide 941.12. Particulars: remark: other sources report otherwise.
Turning to B1, the binding affinity ratio (IC50 standard peptide / IC50 test peptide) was found to be 0.06.

The target of a further experiment is HLA-A*3301 (human).
Test: not given
Conditions: not given
Consider B2, for which the binding affinity ratio (IC50 of standard peptide / IC50 of test peptide) was 0.018.

The same experiment, now with this note: remark: other sources report otherwise.
Take B1: the binding affinity ratio (IC50 standard peptide / IC50 test peptide) stood at 0.02.

In a further experiment the target is HLA-A*0301 (human). Description: competition with 125I probe peptide on purified HLA-A*0301; relative to standard peptide 941.12. The following applies: remark: other sources report otherwise.
For the molecule B1, the binding affinity ratio (IC50 standard peptide / IC50 test peptide) stood at 0.0005.

For another experiment, the target named is HLA-A*0201 (Human).
Test: not given
Conditions: not given
On to B3, for which the binding affinity ratio (IC50 of standard peptide / IC50 of test peptide) worked out at 0.0015.
In the case of B4, the binding affinity ratio (IC50 of standard peptide / IC50 of test peptide) is 0.0036.
Take B5: the binding affinity ratio (IC50 of standard peptide / IC50 of test peptide) (ratio to standard peptide) turned out to be 0.0016.
Take B6: the binding affinity ratio (IC50 of standard peptide / IC50 of test peptide) came out at 0.0009.
Regarding B7, the binding affinity ratio (IC50 of standard peptide / IC50 of test peptide) is 0.0005.
In the case of B8, the binding affinity ratio (IC50 of standard peptide / IC50 of test peptide) (ratio to standard peptide) amounted to 0.0047.
Still for that read-out and setting: the value for B9 was 0.0004.
In the case of B10, the binding affinity ratio (IC50 of standard peptide / IC50 of test peptide) turned out to be 0.0012.
B11: the binding affinity ratio (IC50 of standard peptide / IC50 of test peptide) was determined as 0.003.
On the same count and under the same terms, the value for B12 was 0.003; that for B13 was 0.0049; that for B14 was 0.0038.
Regarding B15, the binding affinity ratio (IC50 of standard peptide / IC50 of test peptide) (ratio to standard peptide) was determined as 0.0005.
Take B16: the binding affinity ratio (IC50 of standard peptide / IC50 of test peptide) is 0.0004.
With B17, the binding affinity ratio (IC50 of standard peptide / IC50 of test peptide) is 0.0006.
The same measure, in the same setting: the value for B18 was 0.0002; that for B19 was 0.009.
Still for that read-out and setting: the value for B20 was 0.0009.
On the same count and under the same terms, the value for B21 was 0.0036; that for B22 was 0.0019.

Still in this experiment, the particulars now being: remark: other sources report otherwise.
Regarding B23, the binding affinity ratio (IC50 of standard peptide / IC50 of test peptide) amounted to 0.0041.
The same measure, in the same setting: the value for B24 was 0.0014.
Same read-out and setting: under B25 stands 0.0012.

For a further experiment, the target named is HLA-A*0201 (human).
Test: not given
Conditions: not given
With B26, the binding affinity ratio (IC50 of standard peptide / IC50 of test peptide) was 0.0059.
Same read-out and setting: under B27 stands 0.0004; under B28, 0.0025; under B29, 0.0053.
Still for that read-out and setting: the value for B30 was 0.0011.
Take B31: the binding affinity ratio (IC50 of standard peptide / IC50 of test peptide) came out at 0.0019.
Still for that read-out and setting: the value for B32 was 0.0026; that for B33 was 0.0039.

A further experiment concerns the target HLA-A*0301 (human). Briefly: competition with 125I-labelled probe peptide for purified HLA, gel filtration.
Conditions: not given
As for B34, the binding affinity ratio (IC50 of standard peptide / IC50 of test peptide) (ratio to standard peptide) was -0.0003.
Turning to B35, the binding affinity ratio (IC50 of standard peptide / IC50 of test peptide) came to 0.0027.
B36: the binding affinity ratio (IC50 of standard peptide / IC50 of test peptide) (ratio to standard peptide) was determined as 0.0027.

A further experiment concerns the target HLA-A*0201 (human). The description is as above.
Conditions: not given
B37: the binding affinity ratio (IC50 of standard peptide / IC50 of test peptide) came to 0.0001.
For B38, the binding affinity ratio (IC50 of standard peptide / IC50 of test peptide) was 0.0001.
The same measure, in the same setting: the value for B39 was 0.0003; that for B40 was 0.0001.
The same measure, in the same setting: the value for B41 was 0.0001; that for B42 was 0.0001.
On the same count and under the same terms, the value for B43 was 0.0001; that for B44 was 0.0002.

The target in a further experiment is HLA-A*0301 (human). Description: competitive inhibition of 125I-labelled probe peptide binding to purified HLA, gel filtration. The following applies: remark: other sources report otherwise; scale: ratio. A general note: In gel filtration, larger molecules generally elute earlier.
For the molecule B45, the binding affinity ratio (relative binding to standard peptide) amounted to 0.003.

The same experiment, now with this note: scale: ratio.
For B46, the binding affinity ratio (relative binding to standard peptide) turned out to be 0.0001.
The same measure, in the same setting: under B47 stands -0.0004; under B48, -0.0002.
Still for that read-out and setting: under B49 stands 0.0005; under B50, -0.0002; under B51, -0.0002.
